The values below are quoted from earlier work in PMC12704549.

The data set addresses pro-IL-18 (Homo sapiens) (UniProt Q14116).

Chain of caspase-4 (P49662 290-377): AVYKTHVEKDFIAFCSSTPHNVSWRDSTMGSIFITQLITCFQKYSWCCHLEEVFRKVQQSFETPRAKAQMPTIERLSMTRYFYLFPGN
Chain of pro-IL-18 (Homo sapiens) (Q14116 37-193): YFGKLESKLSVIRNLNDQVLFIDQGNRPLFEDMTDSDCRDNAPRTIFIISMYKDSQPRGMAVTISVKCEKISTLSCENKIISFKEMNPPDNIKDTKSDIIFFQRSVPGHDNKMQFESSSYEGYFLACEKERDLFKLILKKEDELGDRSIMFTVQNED

The term Kd denotes the constant that tells how readily two partners part at equilibrium. On to caspase-4 (from UniProt P49662), for which the equilibrium dissociation constant (Kd) is 290 nM.
